Source: patent publication US20110262445A1 (CEPHALON AUSTRALIA, published 2011)
Numbering of substitutions follows the chain as printed.

T1: human IL-23 (human, UniProt P29460 23-328; Q9NPF7 20-189)
T1 construct: Recombinant (Ebioscience); HIS-tagged in flow cytometry, biotinylated in some assays; also called hIL-23; rhIL-23
T1 sequence 1: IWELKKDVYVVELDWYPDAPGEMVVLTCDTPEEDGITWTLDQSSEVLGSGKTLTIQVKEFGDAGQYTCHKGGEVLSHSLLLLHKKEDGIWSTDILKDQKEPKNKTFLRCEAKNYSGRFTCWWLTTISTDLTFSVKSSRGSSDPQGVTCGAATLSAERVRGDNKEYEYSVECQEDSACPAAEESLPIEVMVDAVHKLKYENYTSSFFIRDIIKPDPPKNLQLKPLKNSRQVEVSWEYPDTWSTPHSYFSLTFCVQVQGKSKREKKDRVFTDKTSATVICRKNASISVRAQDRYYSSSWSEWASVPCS
T1 sequence 2: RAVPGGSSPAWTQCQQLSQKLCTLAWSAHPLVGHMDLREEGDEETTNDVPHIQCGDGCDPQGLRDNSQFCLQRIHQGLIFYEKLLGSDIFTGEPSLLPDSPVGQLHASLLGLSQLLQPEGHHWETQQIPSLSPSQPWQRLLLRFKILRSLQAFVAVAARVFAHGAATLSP

T2: human IL-12 (human, UniProt P29460 23-328; P29459 23-219)
T2 construct: Recombinant (Peprotech); FLAG-tagged IL-12 in the flow cytometry assays, biotinylated in the IL-12Rβ2 assay; also called hIL-12
T2 sequence 1: T1 sequence 1
T2 sequence 2: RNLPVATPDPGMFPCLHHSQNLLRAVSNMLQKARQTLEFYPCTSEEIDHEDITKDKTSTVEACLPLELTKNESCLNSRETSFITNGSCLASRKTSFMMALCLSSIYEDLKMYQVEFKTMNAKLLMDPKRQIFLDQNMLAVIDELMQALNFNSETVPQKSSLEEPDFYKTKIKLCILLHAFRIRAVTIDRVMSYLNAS

B1: Antibody 93 (antibody, human IgG1, kappa, V domains shown)
VH: EVQLVQSGAEVKKPGATVKISCKASGYTFSDYYLHWVRQAPEKGLEWMGWIDPENGDTEYAPKFQGRVTITADTSTDTGYLELSSLRSEDTAVYYCNANKELRYFDVWGQGTLVTVSS
VL: DIQMTQSPSSVSASVGDRVTITCRASQSISINLHWYQQKPGKAPKLLIYFASQSISGVPSRFSGSGSGTDFSLTINSLQPEDFARYYCQQSNSFPLTFGGGTKVEIKR
B2: Antibody 177 (antibody, human IgG1, kappa, V domains shown)
VH: B1 VH with Y60S, N97A
VL: B1 VL with P80T, R85T
B3: Antibody 107 (antibody, human IgG1, kappa, V domains shown)
VH: B1 VH with T28N, N97A
VL: B1 VL
B4: Antibody 180 (antibody, human IgG1, kappa, V domains shown)
VH: B1 VH with F29L, Y60S, N97A
VL: B1 VL with P80T, R85T
B5: Antibody 100 (antibody, human IgG1, kappa)
heavy chain: not shown
light chain: DIQMTQSPSSVSASVGDRVTITCRASQSISINLHWYQQKPGKAPKLLIYFASQSISGVPSRFSGSGSGTDFSLTINSLQPEDFARYYCQQSNSFPLTFGGGTKVEIKRTVAAPSVFIFPPSDEQLKSGTASVVCLLNNFYPREAKVQWKVDNALQSGNSQESVTEQDSKDSTYSLSSTLTLSKADYEKHKVYACEVTHQGLSSPVTKSFNRGEC
B6: Antibody 182 (antibody, human IgG1, kappa, V domains shown)
VH: B1 VH with F29L, Y60H, N97A
VL: B1 VL with P80T, R85T
B7: Antibody 181 (antibody, human IgG1, kappa, V domains shown)
VH: B1 VH with Y60H, N97A
VL: B1 VL with P80T, R85T
B8: Antibody 104 (antibody, human IgG1, kappa)
heavy chain: not shown
light chain: B5 light chain
B9: Antibody 103 (antibody, human IgG1, kappa)
heavy chain: not shown
light chain: B5 light chain
B10: Antibody 99 (antibody, human IgG1, kappa)
heavy chain: not shown
light chain: B5 light chain
B11: Antibody 102 (antibody, human IgG1, kappa)
heavy chain: not shown
light chain: B5 light chain
B12: Antibody 98 (antibody, human IgG1, kappa)
heavy chain: not shown
light chain: B5 light chain
B13: Antibody 97 (antibody, human IgG1, kappa)
heavy chain: not shown
light chain: B5 light chain
B14: Antibody 101 (antibody, human IgG1, kappa)
heavy chain: not shown
light chain: B5 light chain
B15: Antibody 106 (antibody, human IgG1, kappa, V domains shown)
VH: B1 VH with Y27F, N97A
VL: B1 VL
B16: Antibody 105 (antibody, human IgG1, kappa, V domains shown)
VH: B1 VH with K23T, N97A
VL: B1 VL
B17: Antibody 94 (antibody, human IgG1, kappa, V domains shown)
VH: B1 VH with A98R
VL: B1 VL
B18: Antibody 205 (antibody, human IgG1, kappa, V domains shown)
VH: QVQLVQSGAEVKKPGASVKVSCKASGYTFTDYYLHWVRQAPGRGLEWMGWIDPENGDTEYAPKFQGRVTMTTDTSTSTAYMELRSLRSDDTAVYYCAANKELRYFDVWGQGTMVTVSS
VL: EIVMTQSPATLSVSPGERATLSCRASQSISINLHWYQQKPGQAPRLLIYFASQSISGIPARFSGSGSGTEFTLTISSLQSEDFAVYYCQQSNSFPLTFGGGTKVEIKR
B19: Antibody 192 (antibody, human IgG1, kappa, V domains shown)
VH: B18 VH with F29L, R43Q
VL: B1 VL with P80T, R85T
B20: Antibody 190 (antibody, human IgG1, kappa, V domains shown)
VH: B18 VH with R43Q, A97N
VL: B1 VL with P80T, R85T
B21: Antibody 194 (antibody, human IgG1, kappa, V domains shown)
VH: B18 VH with F29L, R43Q, Y60S
VL: B1 VL with P80T, R85T
B22: Antibody 195 (antibody, human IgG1, kappa, V domains shown)
VH: B18 VH with R43Q, Y60H
VL: B1 VL with P80T, R85T
B23: Antibody 193 (antibody, human IgG1, kappa, V domains shown)
VH: B18 VH with R43Q, Y60S
VL: B1 VL with P80T, R85T
B24: Antibody 198 (antibody, human IgG1, kappa, V domains shown)
VH: B18 VH with T28A, R43Q
VL: B1 VL with P80T, R85T

Legend:
human IL-23 [1] = target: T1, human IL-23; assay: ELISA, coated IL-23
How it was run: (§1)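 Maxisorp plates were coated overnight at 4° C with cytokine at 1 μg/mL in carbonate buffer pH 9.6, then blocked for 1 hour at 25° C with 1% BSA in PBS. Antibody titrations were allowed to bind for 1 hour at 25° C and detected with goat anti-human IgG or anti-murine immunoglobulin HRP (1:2000, 1 hour), followed by TMB development stopped with 1M HCl. Binding is reported as absorbance. Readings were taken at 450 nm against a 620 nm reference.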

human IL-12 [2] = target: T2, human IL-12; assay: ELISA, coated IL-12
How it was run: as §1

human IL-23 [3] = target: T1, human IL-23; assay: SPR, IgG on Protein A
Procedure: (§2) Using SPR technology the kₐ and kd and the KD of various humanized antibodies was determined.
(§3) Using a SPR 3000, Protein A was immobilized onto FC1 and FC2 (or alternatively FC3 and FC4) of a CM5 research grade sensor chip using amine coupling, giving approximately […] RU. FC1 was used a blank throughout the experiments. The experiments were run in HBS-P buffer (SPR). At a flow rate of 20 μl/min, 20 μl of 5 μg/mL of antibody was passed over FC2. IL-12, IL-23 or IL-12p40 (Peprotech) were passed over the surface of FC1 and FC2 at concentrations ranging from 66 nM to 2 nM. Regeneration of the surface was performed using 10 mM Glycine, pH 1.0. The sensorgram data from FC2 was subtracted from FC1 and a buffer only control. The curves were fitted using a 1:1 Langmuir equation to generate the kd, ka and KD values. All curves were fitted with a χ² of less then 2.0 where possible.

human IL-12 [4] = target: T2, human IL-12; assay: SPR, IgG on Protein A
Procedure: as §2, §3

binding result (human IL-23 [1])	binding result (human IL-12 [2])	Kd (human IL-23 [3])	koff (human IL-23 [3])	kon (human IL-23 [3])	Kd (human IL-12 [4])	koff (human IL-12 [4])	kon (human IL-12 [4])	Binder
binds	binds	–	–	–	–	–	–	B1
–	–	0.0373 nM	0.000128 s⁻¹	3.43e+06 M⁻¹ s⁻¹	0.046 nM	0.000212 s⁻¹	4.61e+06 M⁻¹ s⁻¹	B2
binds	binds	–	–	–	–	–	–	B3
–	–	0.0297 nM	9.27e-05 s⁻¹	3.12e+06 M⁻¹ s⁻¹	0.0325 nM	0.000173 s⁻¹	5.31e+06 M⁻¹ s⁻¹	B4
binds	binds	–	–	–	–	–	–	B5
–	–	0.0246 nM	0.000129 s⁻¹	5.27e+06 M⁻¹ s⁻¹	0.0344 nM	0.000214 s⁻¹	6.23e+06 M⁻¹ s⁻¹	B6
–	–	0.0424 nM	0.000173 s⁻¹	4.09e+06 M⁻¹ s⁻¹	0.0681 nM	0.000244 s⁻¹	3.57e+06 M⁻¹ s⁻¹	B7
binds	binds	–	–	–	–	–	–	B8
binds	binds	–	–	–	–	–	–	B9
binds	binds	–	–	–	–	–	–	B10
binds	binds	–	–	–	–	–	–	B11
binds	binds	–	–	–	–	–	–	B12
binds	binds	–	–	–	–	–	–	B13
binds	binds	–	–	–	–	–	–	B14
binds	binds	–	–	–	–	–	–	B15
binds	binds	–	–	–	–	–	–	B16
binds	no binding (tested: not given)	–	–	–	–	–	–	B17
–	–	0.0862 nM	0.000415 s⁻¹	4.81e+06 M⁻¹ s⁻¹	0.157 nM	0.000581 s⁻¹	3.7e+06 M⁻¹ s⁻¹	B18
–	–	0.0794 nM	0.000211 s⁻¹	2.66e+06 M⁻¹ s⁻¹	0.0855 nM	0.000356 s⁻¹	4.16e+06 M⁻¹ s⁻¹	B19
–	–	0.142 nM	0.000609 s⁻¹	4.28e+06 M⁻¹ s⁻¹	0.217 nM	0.00084 s⁻¹	3.86e+06 M⁻¹ s⁻¹	B20
–	–	0.041 nM	0.000122 s⁻¹	2.99e+06 M⁻¹ s⁻¹	0.0927 nM	0.000194 s⁻¹	2.09e+06 M⁻¹ s⁻¹	B21
–	–	0.05 nM	0.000202 s⁻¹	4.03e+06 M⁻¹ s⁻¹	0.103 nM	0.000274 s⁻¹	2.65e+06 M⁻¹ s⁻¹	B22
–	–	–	–	–	0.0794 nM	0.000206 s⁻¹	2.6e+06 M⁻¹ s⁻¹	B23
–	–	0.0877 nM	0.000409 s⁻¹	4.65e+06 M⁻¹ s⁻¹	0.158 nM	0.000594 s⁻¹	3.75e+06 M⁻¹ s⁻¹	B24
